{"source": "the RNAGym collection of RNA variant scans (doi:10.1093/nar/gkz1192)", "parents": {"B1": {"name": "CPEB3 Ribozyme (parent)", "chain": "UAACAGGGGGCCACAGCAGAAGCGUUCACGUCGCAGCCCCUGUCAGAUUCUGGUGAAUCUGCGAAUUCUGCUGUAUAUCUC"}}, "data": [{"variants_of": "B1", "test": "self-cleavage, relative activity (ratio to wild type); higher = more cleavage; in vitro, sequencing", "how_it_was_run": "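CPEB3 self-cleaving ribozyme mutant libraries were made by rounds of error-prone PCR, barcoded, and transcribed in vitro with T7 RNA polymerase for 5 hours at 37°C. Cleavage occurred during transcription and a 15 min DNase I step before EDTA stop. RNAs were reverse transcribed with template switching and Illumina-sequenced, with DNA sequencing mapping barcodes to variants. Relative activity is the variant's cleaved/total read fraction divided by wild type's (minimum 5 reads), averaged across three batches.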", "values": [{"variant": "UAACAGGGGGCCACAGCAGAAGCGUUCACGUCGCAGCCCCUGUCACGUUCUGGUGAAUCUGCGAAUUCUGCUGUAUAUCUC", "note": "[G46C A47G]", "self-cleavage": 0.26}, {"variant": "UAACAGGGGGCCACAGCAGAAGCGUUCACGUCGCAGCCCCUGUCAAAUACUGGUGAAUCUGCGAAUUCUGCUGUAUAUCUC", "note": "[G46A U49A]", "self-cleavage": 0.33}, {"variant": "UAACAGGGGGCCACAGCAGAAGCGUUCACGUCGCAGCCCCUGUCAAAUCCUGGUGAAUCUGCGAAUUCUGCUGUAUAUCUC", "note": "[G46A U49C]", "self-cleavage": 0.11}, {"variant": "UAACAGGGGGCCACAGCAGAAGCGUUCACGUCGCAGCCCCUGUCAAAUUCUGGUGAAUCUGCGAAUUCUGCUGCAUAUCUC", "note": "[G46A U74C]", "self-cleavage": 0.48}, {"variant": "UAACAGGGGGCCACAGCAGAAGCGUUCACGUCGCAGCCCCUGUCAAAUUCUGAUGAAUCUGCGAAUUCUGCUGUAUAUCUC", "note": "[G46A G53A]", "self-cleavage": 0.45}, {"variant": "UAACAGGGGGCCACAGCAGAAGCGUUCACGUCGCAGCCCCUGUCACAUUCUGGUGAAUCAGCGAAUUCUGCUGUAUAUCUC", "note": "[G46C U60A]", "self-cleavage": 0.11}, {"variant": "UAACAGGGGGCCACAGCAGAAGCGUUCACGUCGCAGCCCCUGUCACAUUCUGGUGAAUCCGCGAAUUCUGCUGUAUAUCUC", "note": "[G46C U60C]", "self-cleavage": 0.2}, {"variant": "UAACAGGGGGCCACAGCAGAAGCGUUCACGUCGCAGCCCCUGUCACAUUCUGGUGAAUCUGCGAAUUCUGCAGUAUAUCUC", "note": "[G46C U72A]", "self-cleavage": 0.25}, {"variant": "UAACAGGGGGCCACAGCAGAAGCGUUCACGUCGCAGCCCCUGUCAAAUUCUGGUGAAUCUGCGAAUUCUGCUGUAAAUCUC", "note": "[G46A U76A]", "self-cleavage": 0.5}, {"variant": "UAACAGGGGGCCACAGCAGAAGCGUUCACGUCGCAGCCCCUGUCAAAUUCUGGUGAAUCUGCGAAUUCUGCUGUACAUCUC", "note": "[G46A U76C]", "self-cleavage": 0.19}, {"variant": "UAACAGGGGGCCACAGCAGAAGCGUUCACGUCGCAGCCCCUGUCUGAUUCUGGUGAAUCUGCGAAUUCGGCUGUAUAUCUC", "note": "[A45U U69G]", "self-cleavage": 0.51}, {"variant": "UAACAGGGGGCCACAGCAGAAGCGUUCACGUCGCAGCCCCUGUCUGAUUCUGGUGAAUCUGCGAAUUCAGCUGUAUAUCUC", "note": "[A45U U69A]", "self-cleavage": 0.31}, {"variant": "UAACAGGGGGCCACAGCAGAAGCGUUCACGUCGCAGCCCCUGUCUGAUUCUGGUGAAUCUGCGAAUUCCGCUGUAUAUCUC", "note": "[A45U U69C]", "self-cleavage": 0.31}, {"variant": "UAACAGGGGGCCACAGCAGAAGCGUUCACGUCGCAGCCCCUGUCUGAUUCUGGUGAAUCUGCGAAUUCUGCUGUAUAGCUC", "note": "[A45U U78G]", "self-cleavage": 0.65}, {"variant": "UAACAGGGGGCCACAGCAGAAGCGUUCACGUCGCAGCCCCUGUCUGAUUCUGGUGAAUCUGCGAAUUCUGCUGUAUACCUC", "note": "[A45U U78C]", "self-cleavage": 0.44}, {"variant": "UAACAGGGGGCCACAGCAGAAGCGUUCACGUCGCAGCCCCUGUCUGAUUCUGGUGAAUCUGCGAAUUCUGCUGUAUAACUC", "note": "[A45U U78A]", "self-cleavage": 0.62}, {"variant": "UAACAGGGGGCCACAGCAGAAGCGUUCACGUCGCAGCCCCUGUCAAAUUCUGGUGGAUCUGCGAAUUCUGCUGUAUAUCUC", "note": "[G46A A56G]", "self-cleavage": 0.25}, {"variant": "UAACAGGGGGCCACAGCAGAAGCGUUCACGUCGCAGCCCCUGUCUGAUUCUGGUGAAUCUGCGAAUUCUGCUGUAAAUCUC", "note": "[A45U U76A]", "self-cleavage": 0.52}, {"variant": "UAACAGGGGGCCACAGCAGAAGCGUUCACGUCGCAGCCCCUGUCUGAUUCUGGUGAAUCUGCGAAUUCUGCUGUACAUCUC", "note": "[A45U U76C]", "self-cleavage": 0.49}, {"variant": "UAACAGGGGGCCACAGCAGAAGCGUUCACGUCGCAGCCCCUGUCUGAUUCUGGUGAAUCUGCGAAUACUGCUGUAUAUCUC", "note": "[A45U U67A]", "self-cleavage": 0.24}, {"variant": "UAACAGGGGGCCACAGCAGAAGCGUUCACGUCGCAGCCCCUGUCUGAUUCUGGUGAAUCUGCGAAUCCUGCUGUAUAUCUC", "note": "[A45U U67C]", "self-cleavage": 0.27}, {"variant": "UAACAGGGGGCCACAGCAGAAGCGUUCACGUCGCAGCCCCUGUCUGAUUCUGGUGAAUCUGCGAAUGCUGCUGUAUAUCUC", "note": "[A45U U67G]", "self-cleavage": 0.17}, {"variant": "UAACAGGGGGCCACAGCAGAAGCGUUCACGUCGCAGCCCCUGUCAAAUUCUGGCGAAUCUGCGAAUUCUGCUGUAUAUCUC", "note": "[G46A U54C]", "self-cleavage": 0.06}, {"variant": "UAACAGGGGGCCACAGCAGAAGCGUUCACGUCGCAGCCCCUGUCAAAUUCUGGUGAAUCUGCGAAUUCUGCUGUAUACCUC", "note": "[G46A U78C]", "self-cleavage": 0.38}, {"variant": "UAACAGGGGGCCACAGCAGAAGCGUUCACGUCGCAGCCCCUGUCAAAUUCUGGUGAAUCUGCGUAUUCUGCUGUAUAUCUC", "note": "[G46A A64U]", "self-cleavage": 0.08}, {"variant": "UAACAGGGGGCCACAGCAGAAGCGUUCACGUCGCAGCCCCUGUCAAAUUCUGGUGAAUCUGCGGAUUCUGCUGUAUAUCUC", "note": "[G46A A64G]", "self-cleavage": 0.19}, {"variant": "UAACAGGGGGCCACAGCAGAAGCGUUCACGUCGCAGCCCCUGUCAAAUUCUGGUGAAUCUGCGAAUCCUGCUGUAUAUCUC", "note": "[G46A U67C]", "self-cleavage": 0.15}, {"variant": "UAACAGGGGGCCACAGCAGAAGCGUUCACGUCGCAGCCCCUGUCAAAUUCUGGUGAAUCUGCGAAUACUGCUGUAUAUCUC", "note": "[G46A U67A]", "self-cleavage": 0.18}, {"variant": "UAACAGGGGGCCACAGCAGAAGCGUUCACGUCGCAGCCCCUGUCAAAUUCUGGUGAAUCUGCGAAUUCUGCUGUGUAUCUC", "note": "[G46A A75G]", "self-cleavage": 0.25}, {"variant": "UAACAGGGGGCCACAGCAGAAGCGUUCACGUCGCAGCCCCUGUCUGAUUCUGGUGAAUCUGCGAAUUCUGCUGCAUAUCUC", "note": "[A45U U74C]", "self-cleavage": 0.87}, {"variant": "UAACAGGGGGCCACAGCAGAAGCGUUCACGUCGCAGCCCCUGUCUGAUUCUGGUGAAUCUGCGAAUUCUGCUGAAUAUCUC", "note": "[A45U U74A]", "self-cleavage": 1.03}, {"variant": "UAACAGGGGGCCACAGCAGAAGCGUUCACGUCGCAGCCCCUGUCUGAUUCUGGUGAAUCUGCGAAUUCUGCUGGAUAUCUC", "note": "[A45U U74G]", "self-cleavage": 1.09}, {"variant": "UAACAGGGGGCCACAGCAGAAGCGUUCACGUCGCAGCCCCUGUCAAAUUCUGGUGAAUCUGCGAACUCUGCUGUAUAUCUC", "note": "[G46A U66C]", "self-cleavage": 0.25}, {"variant": "UAACAGGGGGCCACAGCAGAAGCGUUCACGUCGCAGCCCCUGUCAAAUUCUGGUGAAUCAGCGAAUUCUGCUGUAUAUCUC", "note": "[G46A U60A]", "self-cleavage": 0.5}]}]}
